According to PMC10397247:

How the values were obtained:
Experiment in all cases: two-hybrid library CCmax;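 note: natural log of median RNA to DNA barcode read ratio; higher means stronger binding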
4H2611-AA = target: T1, 4H2611-AA
T1 chain: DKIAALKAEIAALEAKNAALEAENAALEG

4H3340-AA = target: T2, 4H3340-AA; details: mean of both orientations
T2 chain: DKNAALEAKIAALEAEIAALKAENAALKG

4H963-AA = target: T3, 4H963-AA; details: mean of both orientations
T3 chain: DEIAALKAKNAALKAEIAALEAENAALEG

4H3718-AA = target: T4, 4H3718-AA; details: mean of both orientations
T4 chain: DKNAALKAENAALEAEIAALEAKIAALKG

4H3865-AA = target: T5, 4H3865-AA
T5 chain: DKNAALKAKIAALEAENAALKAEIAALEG

4H340-AA = target: T6, 4H340-AA; details: mean of both orientations
T6 chain: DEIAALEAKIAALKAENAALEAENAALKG

4H2907-AA = target: T7, 4H2907-AA; details: mean of both orientations
T7 chain: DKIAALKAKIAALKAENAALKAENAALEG

4H3606-AA = target: T8, 4H3606-AA; details: mean of both orientations
T8 chain: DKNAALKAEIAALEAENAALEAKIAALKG

4H384-AA = target: T9, 4H384-AA; details: mean of both orientations
T9 chain: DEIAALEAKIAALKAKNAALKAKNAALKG

4H376-AA = target: T10, 4H376-AA; details: mean of both orientations
T10 chain: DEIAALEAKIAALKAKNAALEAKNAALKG

4H3413-AA = target: T11, 4H3413-AA; details: mean of both orientations
T11 chain: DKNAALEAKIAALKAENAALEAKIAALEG

4H3378-AA = target: T12, 4H3378-AA; details: mean of both orientations
T12 chain: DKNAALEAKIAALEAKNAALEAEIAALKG

4H32-AA = target: T13, 4H32-AA; details: mean of both orientations
T13 chain: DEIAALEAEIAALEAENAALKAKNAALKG

4H3588-AA = target: T14, 4H3588-AA; details: mean of both orientations
T14 chain: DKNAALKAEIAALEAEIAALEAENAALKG

4H406-AA = target: T15, 4H406-AA; details: mean of both orientations
T15 chain: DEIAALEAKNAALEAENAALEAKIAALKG

4H2774-AA = target: T16, 4H2774-AA; details: mean of both orientations
T16 chain: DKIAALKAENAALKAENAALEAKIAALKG

4H3631-AA = target: T17, 4H3631-AA; details: mean of both orientations
T17 chain: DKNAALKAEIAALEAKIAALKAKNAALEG

4H982-AA = target: T18, 4H982-AA; details: mean of both orientations
T18 chain: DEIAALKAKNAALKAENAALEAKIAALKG

4H3381-AA = target: T19, 4H3381-AA; details: mean of both orientations
T19 chain: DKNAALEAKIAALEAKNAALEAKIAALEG

4H3001-AA = target: T20, 4H3001-AA; details: mean of both orientations
T20 chain: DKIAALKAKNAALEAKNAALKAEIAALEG

4H3056-AA = target: T21, 4H3056-AA; details: mean of both orientations
T21 chain: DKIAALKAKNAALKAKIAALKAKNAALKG

4H3162-AA = target: T22, 4H3162-AA; details: mean of both orientations
T22 chain: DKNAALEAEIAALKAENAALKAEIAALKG

4H697-AA = target: T23, 4H697-AA
T23 chain: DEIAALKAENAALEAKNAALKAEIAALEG

4H347-AA = target: T24, 4H347-AA; details: mean of both orientations
T24 chain: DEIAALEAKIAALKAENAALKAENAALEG

4H3133-AA = target: T25, 4H3133-AA; details: mean of both orientations
T25 chain: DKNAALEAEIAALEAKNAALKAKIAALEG

4H2620-AA = target: T26, 4H2620-AA; details: mean of both orientations
T26 chain: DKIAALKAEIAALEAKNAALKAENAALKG

4H688-AA = target: T27, 4H688-AA; details: mean of both orientations
T27 chain: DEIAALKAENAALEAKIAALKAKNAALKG

4H3493-AA = target: T28, 4H3493-AA; details: mean of both orientations
T28 chain: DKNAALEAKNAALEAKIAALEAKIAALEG

4H2648-AA = target: T29, 4H2648-AA; details: mean of both orientations
T29 chain: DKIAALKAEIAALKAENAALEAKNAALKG

4H3697-AA = target: T30, 4H3697-AA; details: mean of both orientations
T30 chain: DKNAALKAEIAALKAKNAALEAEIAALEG

With DKIAALKAEIAALEAKNAALEAENAALEG [4H2611-AA] the interaction score (4H2611-AA) was -1.29, the interaction score (4H3340-AA) was -1.49 and the interaction score (4H963-AA) was -1.66. It also gave an interaction score (4H3718-AA) of -0.987, an interaction score (4H3865-AA) of -1.39 and an interaction score (4H340-AA) of 1.81. For the same binder, the interaction score (4H2907-AA) was -1.28, the interaction score (4H3606-AA) was -1.56 and the interaction score (4H384-AA) was 2.04. The interaction score (4H376-AA) was 1.87, the interaction score (4H3413-AA) was -1.32 and the interaction score (4H3378-AA) was -2.55. It also gave an interaction score (4H32-AA) of 1.56, an interaction score (4H3588-AA) of -1.55 and an interaction score (4H406-AA) of -1.29. It also gave an interaction score (4H2774-AA) of -1.54, an interaction score (4H3631-AA) of -0.311 and an interaction score (4H982-AA) of -1.45. The interaction score (4H3381-AA) was -1.73, the interaction score (4H3001-AA) was -1.69 and the interaction score (4H3056-AA) was -1.57. It also gave an interaction score (4H3162-AA) of -1.57, an interaction score (4H697-AA) of -2.17 and an interaction score (4H347-AA) of -0.637. The interaction score (4H3133-AA) was -1.77, the interaction score (4H2620-AA) was 0.167 and the interaction score (4H688-AA) was -1.66. For the same binder, the interaction score (4H3493-AA) was -1.87, the interaction score (4H2648-AA) was 1.2 and the interaction score (4H3697-AA) was -2.02.
